# Publication PMC3938503
# Target: T1, CRPM (cAMP receptor protein of Mtb) (Mycobacterium tuberculosis) (UniProt P9WMH3)
# T1 sequence: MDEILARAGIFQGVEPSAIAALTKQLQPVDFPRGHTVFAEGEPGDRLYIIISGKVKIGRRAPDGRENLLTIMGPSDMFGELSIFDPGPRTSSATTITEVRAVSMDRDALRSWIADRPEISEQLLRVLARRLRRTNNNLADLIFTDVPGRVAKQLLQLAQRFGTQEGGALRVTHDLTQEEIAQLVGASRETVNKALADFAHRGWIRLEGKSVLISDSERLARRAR
# Assay: EMSA
sequence,measurement,value
TCAGCGACCGTCAGCACGCCAGTTCAATACGGCGAGAAGCGCGTTCTCATCGAAAGTCGGTCAAGCTGGCGGACTGAGCACTGCTCTCCGGGCTTGACCGGGGCCTCTCCCAGCTACGCCCCGAGCGTGTGCCCTGCCGACACGCGGGAACAAGACCCGCACGACCAGCGTTAGCATGCTCAGTAAGTTGAGTGCATCAGGCTCAGCTCTGAATTGACAGCACACCGCCGTCGAGGCAAGCTTGAGCGGGGTGCACTCATCATAGTGCAGGAAAGAAGCTCTACATATTCAGGAGGATTCACC (double strand) [dnaK-303],binding signal (fold reduced vs dnaK-346),2
